This is an account of results in paper doi:10.1101/270363 (bioRxiv, 2018).

B1: CC1 fragment of nPIST (1st - 138th aa) (domain or fragment)
chain: MSAGGPCPAGAGGGPGGSSCPVGVSPGGVSMFRWLEVLEKEFDKAFVDVDLLLGEIDPDQADITYEGRQKMTSLSSCFAQLCHKAQTVSQINHKLEAQLVDLRSELTETQAEKVVLEKEVHEQLLQLHSTQLQLHAKT
B2: CC2 fragment of nPIST (140th - 210th aa) (domain or fragment)
chain: QSVDSGAIKAKLSVHSVEDLERELEANKTEKVKEARLEAEVKLLRKENEALRRHIAVLQAEVYGARLAAKY
B3: CC-WH2 fragment of nPIST (1st - 267th aa) (domain or fragment)
chain: MSAGGPCPAGAGGGPGGSSCPVGVSPGGVSMFRWLEVLEKEFDKAFVDVDLLLGEIDPDQADITYEGRQKMTSLSSCFAQLCHKAQTVSQINHKLEAQLVDLRSELTETQAEKVVLEKEVHEQLLQLHSTQLQLHAKTGQSVDSGAIKAKLSVHSVEDLERELEANKTEKVKEARLEAEVKLLRKENEALRRHIAVLQAEVYGARLAAKYLDKELAGRVQQIQLLGRDMKGPAHDKLWNQLEAEIHLHRHKTVIRACRGRNDLKRPM
B4: WH2 fragment of nPIST (200th - 289th aa) (domain or fragment)
chain: EVYGARLAAKYLDKELAGRVQQIQLLGRDMKGPAHDKLWNQLEAEIHLHRHKTVIRACRGRNDLKRPMQAPPGHDQDSLKKSQGVGPIRK

The experiment deals with F-actin (filamentous actin) (rabbit, UniProt P68135 1-377). Briefly: co-sedimentation.
Consider B1, for which the binding result was “binds”.

Take B2: the binding result is on record as “binds”.

With B3, the binding result is listed as “binds”.

Regarding B4, the binding result was “binds”.
